Where two headings read alike, the source gives them in different places.
How the values were obtained:
Human CD48 on cells [1] = target: T1, Human CD48 on cells (human, UniProt P09326 27-220); assay: cell-based or functional assay
T1 sequence: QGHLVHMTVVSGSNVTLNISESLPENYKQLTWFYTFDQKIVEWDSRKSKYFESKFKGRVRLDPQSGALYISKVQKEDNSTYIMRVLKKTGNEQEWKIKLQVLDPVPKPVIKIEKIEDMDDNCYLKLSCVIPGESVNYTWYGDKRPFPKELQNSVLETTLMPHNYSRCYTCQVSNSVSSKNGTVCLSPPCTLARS

Human CD48 on cells [2] = target: T1, Human CD48 on cells; assay: cell-based or functional assay; remark: listed apart in the source
[3] = target: T2, Human CD48 (soluble recombinant, SPR analyte) (human, UniProt P09326 27-220); assay: SPR Biacore T200, antibody captured on protein A chip, soluble CD48 as analyte, 25 C, 1:1 model
T2 construct: also called Human CD48 antigen; not shown: C-terminal tag (hFc1P, APP6-Avi or His) is not specified for the analyte
T2 sequence: T1 sequence
Protocol: (§1) HBS-EP+pH 7.4 containing 10 mM HEPES, 150 mM NaCl, 3 mM EDTA and 0.05% (v/v) surfactant P20 (Teknova, ordering #H8022) was used as running buffer as well as for sample dilution.
(§2) The anti-CD48 antibodies were diluted at 5 μg/ml and injected on flow cells 2 and 4 for 20 sec at 10 μl/min. Capture level for all antibodies was 370-440 RU. Flow cells 1 and 3 were left blank (no antibody captured) and used as a reference surface. Human and cynomolgus CD48 served as analytes in solution. […] After each cycle of antibody capture and analyte injection, the chip surface was regenerated with 10 mM Glycine-HCl pH 1.5 (Cytiva, ordering #BR100354) for 2×30 s at a flow rate of 50 μl/min. Three runs with duplicate measurements and buffer blank injections were performed. Measurements were executed at 25° C. and data collected at a rate of 10 Hz.
(§3) Data were evaluated using the Biacore 8K evaluation software. The raw data were double referenced, i.e. the response of the measuring flow cells was corrected for the response of the reference flow cells (no antibody captured), and in a second step the response of a blank injection (buffer) was subtracted. Finally, the sensorgrams were fitted by applying a 1:1 interaction model with a constant fit of RI (0) and a global fit for Rₘₐₓ. Kinetic rate constants (kₐ, kd) and equilibrium dissociation constants (KD) were calculated. Data were processed separately for each run. The generated values were used to calculate average values and standard deviations of the respective equilibrium dissociation constants and the kinetic rate constants.

[4] = target: T3, Cynomolgus CD48 (soluble recombinant, SPR analyte) (cynomolgus monkey (Macaca fascicularis), UniProt P09326 30-225 (human entry)); assay: as above
T3 construct: also called cyno CD48; Cyno CD48; not shown: C-terminal tag (hFc1P, APP6-Avi or His) is not specified for the analyte
T3 chain: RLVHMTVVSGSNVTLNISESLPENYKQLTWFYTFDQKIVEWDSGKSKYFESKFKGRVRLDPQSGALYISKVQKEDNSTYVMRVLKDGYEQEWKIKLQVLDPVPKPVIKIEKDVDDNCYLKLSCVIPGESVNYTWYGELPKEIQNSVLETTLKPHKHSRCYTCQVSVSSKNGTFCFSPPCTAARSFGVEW
Protocol: as §1, §2, §3

[5] = target: T2, Human CD48 (soluble recombinant, SPR …); assay: SPR Biacore T200, antibody captured on Protein A chip, soluble CD48 as analyte, 1:1 model, Exp 1
Protocol: (§4) Binding to human and cyno CD48 for the WT IgG and DAPA (D265A and P329A mutation) variant was assessed for affinity determinations using Biacore. Kinetic rate constants was performed via SPR using the Biacore T200 instrument (Cytiva, formerly GE Healthcare Lifesciences) as described below.
(§5) The Protein A capture method was utilized in order to determine kinetics for the antibodies. […] The human CD48 and cyno CD48 concentration started at 50 nM and 200 nM respectively, and were serially diluted at one part to one part for nine concentrations. Regeneration was performed at the end of each concentration washing with the Glycine pH1.5 (Cytiva, cat #BR100354).
(§6) Double reference subtraction was completed to generate the final data. The raw data was fitted to a 1:1 binding model, with parameter(s) Rmax set to local.

[6] = target: T3, Cynomolgus CD48 (soluble recombinant, …); assay: as above
Protocol: as §4, §5, §6

[7] = target: T2, Human CD48 (soluble recombinant, SPR …); assay: SPR Biacore T200, antibody captured on Protein A chip, soluble CD48 as analyte, 1:1 model, Exp 2
Protocol: as §4, §5, §6

[8] = target: T3, Cynomolgus CD48 (soluble recombinant, …); assay: as above
Protocol: as §4, §5, §6

B1: NY920-DAPA-VC-MMAE (antibody, human IgG1, kappa)
heavy: EVQLLESGGGLVQPGGSLRLSCAASGFTFSSFAMSWVRQAPGKGLEWVSAISGFGGSTYYADSVKGRFTISRDNSKNTLYLQMNSLRAEDTAVYYCARQFWEDQPFYFDYWGQGTLVTVSSASTKGPSVFPLAPSSKSTSGGTAALGCLVKDYFPCPVTVSWNSGALTSGVHTFPAVLQSSGLYSLSSVVTVPSSSLGTQTYICNVNHKPSNTKVDKRVEPKSCDKTHTCPPCPAPELLGGPSVFLFPPKPKDTLMISRTPEVTCVVVAVSHEDPEVKFNWYVDGVEVHNAKTKPREEQYNSTYRVVSVLTVLHQDWLNGKEYKCKVSNKALAAPIEKTISKAKGQPREPQVYTLPPSREEMTKNQVSLTCLVKGFYPCDIAVEWESNGQPENNYKTTPPVLDSDGSFFLYSKLTVDKSRWQQGNVFSCSVMHEALHNHYTQKSLSLSPGK
light: not shown
modifications: VC-MMAE (MC-valcit-PAB-MMAE) on the engineered cysteines (E152C, S375C, EU numbering)
Amax (Span), KMS-20 (Human CD48 on cells [1]): 94
Amax (Span), KMS-21-BM (Human CD48 on cells [1]): 92.9
Amax (Span), KMS-27 (Human CD48 on cells [1]): 83.9
Amax (Span), NCI-H929 (Human CD48 on cells [1]): 89.7
IC50 (nM), cell proliferation/survival (CellTiter-Glo), KMS-20 (Human CD48 on cells [1]): 0.077 nM
IC50 (nM), cell proliferation/survival (CellTiter-Glo), KMS-21-BM (Human CD48 on cells [1]): 0.026 nM
IC50 (nM), cell proliferation/survival (CellTiter-Glo), KMS-27 (Human CD48 on cells [1]): 0.028 nM
IC50 (nM), cell proliferation/survival (CellTiter-Glo), NCI-H929 (Human CD48 on cells [1]): 0.027 nM

B2: NY938 (antibody, human IgG1, kappa)
heavy: not shown
light: DIQMTQSPSSLSASVGDRVTITCKASQDVGTAVAWYQQKPGKVPKLLIYWASTRHTGVPSRFSGSGSGTDFTLTISSLQPEDVATYYCQQYSTYPITFGQGTKLEIKRTVAAPSVFIFPPSDEQLKSGTASVVCLLNNFYPREAKVQWKVDNALQSGNSQESVTEQDSKDSTYSLSSTLTLSKADYEKHKVYACEVTHQGLSSPVTKSFNRGEC
notes: also called anti-CD48-NY938-hIgG1_kappa (a-fuc); NY938-IgG
IC50 (nM), cell proliferation/survival (CellTiter-Glo), KMS-21-BM, with anti-human Fc-VC-MMAE (Human CD48 on cells [2]): 0.008 nM
IC50 (nM), cell proliferation/survival (CellTiter-Glo), KMS-27, with anti-human Fc-VC-MMAE (Human CD48 on cells [2]): < 0.001 nM
IC50 (nM), cell proliferation/survival (CellTiter-Glo), NCI-H929, with anti-human Fc-VC-MMAE (Human CD48 on cells [2]): 0.004 nM
Span (Amax), KMS-21-BM, with anti-human Fc-VC-MMAE (Human CD48 on cells [2]): 98.9
Span (Amax), KMS-27, with anti-human Fc-VC-MMAE (Human CD48 on cells [2]): > 100
Span (Amax), NCI-H929, with anti-human Fc-VC-MMAE (Human CD48 on cells [2]): 99.7
Kd [3]: 0.5 nM
koff [3]: 0.00013 s⁻¹
kon [3]: 250000 M⁻¹ s⁻¹
Kd [4]: 1.5 nM
koff [4]: 0.00037 s⁻¹
kon [4]: 250000 M⁻¹ s⁻¹

B3: NY938-DAPA-VC-MMAE (antibody, human IgG1, kappa)
heavy: QVQLVQSGAEVKKPGASVKVSCKASGYTFTEYTMHWVRQAPGQGLEWMGGINPDTGDTSYNQKFTGRATLTVDKSTSTAYMELSSLRSEDTAVYYCARAQFWTTPRFAYWGQGTLVTVSSASTKGPSVFPLAPSSKSTSGGTAALGCLVKDYFPCPVTVSWNSGALTSGVHTFPAVLQSSGLYSLSSVVTVPSSSLGTQTYICNVNHKPSNTKVDKRVEPKSCDKTHTCPPCPAPELLGGPSVFLFPPKPKDTLMISRTPEVTCVVVAVSHEDPEVKFNWYVDGVEVHNAKTKPREEQYNSTYRVVSVLTVLHQDWLNGKEYKCKVSNKALAAPIEKTISKAKGQPREPQVYTLPPSREEMTKNQVSLTCLVKGFYPCDIAVEWESNGQPENNYKTTPPVLDSDGSFFLYSKLTVDKSRWQQGNVFSCSVMHEALHNHYTQKSLSLSPGK
light: B2 light
modifications: VC-MMAE (MC-valcit-PAB-MMAE) on the engineered cysteines (E152C, S375C, EU numbering)
Amax (Span), KMS-20 (Human CD48 on cells [1]): 99.8
Amax (Span), KMS-21-BM (Human CD48 on cells [1]): 105
Amax (Span), KMS-27 (Human CD48 on cells [1]): 108
Amax (Span), NCI-H929 (Human CD48 on cells [1]): 105
IC50 (nM), cell proliferation/survival (CellTiter-Glo), KMS-20 (Human CD48 on cells [1]): 0.037 nM
IC50 (nM), cell proliferation/survival (CellTiter-Glo), KMS-21-BM (Human CD48 on cells [1]): 0.021 nM
IC50 (nM), cell proliferation/survival (CellTiter-Glo), KMS-27 (Human CD48 on cells [1]): 0.014 nM
IC50 (nM), cell proliferation/survival (CellTiter-Glo), NCI-H929 (Human CD48 on cells [1]): 0.016 nM

B4: NY938-CysMab-VC-MMAE (antibody, human IgG1, kappa)
heavy: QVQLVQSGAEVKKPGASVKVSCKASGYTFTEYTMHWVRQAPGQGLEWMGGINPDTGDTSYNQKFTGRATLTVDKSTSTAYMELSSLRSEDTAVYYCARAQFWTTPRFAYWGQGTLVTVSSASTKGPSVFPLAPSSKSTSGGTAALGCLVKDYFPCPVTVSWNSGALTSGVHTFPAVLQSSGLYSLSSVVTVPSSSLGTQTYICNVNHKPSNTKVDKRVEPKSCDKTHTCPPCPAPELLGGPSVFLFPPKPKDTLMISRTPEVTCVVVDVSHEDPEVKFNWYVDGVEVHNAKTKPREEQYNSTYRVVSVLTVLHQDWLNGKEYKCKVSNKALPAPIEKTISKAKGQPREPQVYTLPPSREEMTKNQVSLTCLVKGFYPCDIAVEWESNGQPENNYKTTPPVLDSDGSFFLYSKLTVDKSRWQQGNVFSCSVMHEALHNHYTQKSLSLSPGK
light: B2 light
modifications: VC-MMAE (MC-valcit-PAB-MMAE) on the engineered cysteines (E152C, S375C, EU numbering)
Amax (Span), KMS-20 (Human CD48 on cells [1]): 99.2
Amax (Span), KMS-21-BM (Human CD48 on cells [1]): 105
Amax (Span), KMS-27 (Human CD48 on cells [1]): 98.6
Amax (Span), NCI-H929 (Human CD48 on cells [1]): 101
IC50 (nM), cell proliferation/survival (CellTiter-Glo), KMS-20 (Human CD48 on cells [1]): 0.043 nM
IC50 (nM), cell proliferation/survival (CellTiter-Glo), KMS-21-BM (Human CD48 on cells [1]): 0.021 nM
IC50 (nM), cell proliferation/survival (CellTiter-Glo), KMS-27 (Human CD48 on cells [1]): 0.017 nM
IC50 (nM), cell proliferation/survival (CellTiter-Glo), NCI-H929 (Human CD48 on cells [1]): 0.018 nM

B5: NY938 DAPA (antibody, human IgG1, kappa, name in EU numbering)
heavy: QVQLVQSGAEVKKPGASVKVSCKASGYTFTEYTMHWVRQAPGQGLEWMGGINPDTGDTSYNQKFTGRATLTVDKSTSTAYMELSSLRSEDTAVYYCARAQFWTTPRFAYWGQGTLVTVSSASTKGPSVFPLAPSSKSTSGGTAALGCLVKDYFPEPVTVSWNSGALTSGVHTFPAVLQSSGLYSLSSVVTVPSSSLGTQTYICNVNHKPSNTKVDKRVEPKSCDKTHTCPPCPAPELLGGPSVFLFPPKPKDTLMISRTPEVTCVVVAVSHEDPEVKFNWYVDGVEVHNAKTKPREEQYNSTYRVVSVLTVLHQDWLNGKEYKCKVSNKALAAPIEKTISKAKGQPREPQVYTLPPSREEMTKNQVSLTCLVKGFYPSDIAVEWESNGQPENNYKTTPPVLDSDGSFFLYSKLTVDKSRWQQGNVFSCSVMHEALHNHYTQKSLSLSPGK
light: B2 light
notes: Positions are EU numbers; also called NY938 DAPA IgG variant
Kd [5]: 0.296 nM
koff [5]: 0.000104 s⁻¹
kon [5]: 352000 M⁻¹ s⁻¹
Kd [6]: 1.07 nM
koff [6]: 0.000289 s⁻¹
kon [6]: 271000 M⁻¹ s⁻¹
Kd [7]: 0.252 nM
koff [7]: 0.000115 s⁻¹
kon [7]: 456000 M⁻¹ s⁻¹
Kd [8]: 0.774 nM
koff [8]: 0.000316 s⁻¹
kon [8]: 409000 M⁻¹ s⁻¹

B6: CD48A-CysMab-VC-MMAE (antibody, human IgG1, kappa)
heavy: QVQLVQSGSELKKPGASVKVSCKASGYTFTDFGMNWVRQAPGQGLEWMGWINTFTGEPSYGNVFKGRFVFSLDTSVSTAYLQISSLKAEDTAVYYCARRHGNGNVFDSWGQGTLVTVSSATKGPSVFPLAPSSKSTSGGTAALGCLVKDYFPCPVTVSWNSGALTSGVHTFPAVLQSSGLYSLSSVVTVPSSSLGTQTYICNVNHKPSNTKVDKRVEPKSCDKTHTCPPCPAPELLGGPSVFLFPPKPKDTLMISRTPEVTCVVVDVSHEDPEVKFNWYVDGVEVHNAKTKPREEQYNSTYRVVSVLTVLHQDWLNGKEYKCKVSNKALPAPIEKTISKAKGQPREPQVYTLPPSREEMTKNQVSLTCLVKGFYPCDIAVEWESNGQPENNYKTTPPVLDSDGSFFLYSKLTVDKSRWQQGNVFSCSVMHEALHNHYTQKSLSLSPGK
light: EIVLTQSPDFQSVTPKEKVTITCRASQSIGSNIHWYQQKPDQSPKLLIKYTSESISGVPSRFSGSGSGTDFTLTINSLEAEDAATYYCQQSNSWPLTFGGGTKVEIKRTVAAPSVFIFPPSDEQLKSGTASVVCLLNNFYPREAKVQWKVDNALQSGNSQESVTEQDSKDSTYSLSSTLTLSKADYEKHKVYACEVTHQGLSSPVTKSFNRGEC
modifications: MC-valcit-PAB-MMAE on the engineered cysteines (CysMab: E152C, S375C, EU numbering); DAR 3.9
IC50 (nM), cell proliferation/survival (CellTiter-Glo), KMS-21-BM (Human CD48 on cells [2]): 0.062 nM
IC50 (nM), cell proliferation/survival (CellTiter-Glo), KMS-27 (Human CD48 on cells [2]): 6.1 nM
IC50 (nM), cell proliferation/survival (CellTiter-Glo), NCI-H929 (Human CD48 on cells [2]): 2.1 nM

— patent US20220162308A1 (Novartis, published 2022)
